Data reported in the RNAGym collection of RNA variant scans (doi:10.1073/pnas.2313332121).

B1: TPR t1 (parent)
chain: GACCAAUCUGCCCUCAGAGCUCGAGAACAUCUUCGGAUGCAGAGGAGGCAGGCUUCGGUGGCGCGAUAGCGCCAACGUCCUCAACCUCCAAUGCAUCCCACCACAUGAUGAUGCCUGAAGAGCCUUGGUUUUUUG

Variants of: B1
Assay: polymerase ribozyme fitness, log enrichment relative to wild type (log ratio); higher = more active; in vitro selection for triplet polymerase activity
Summary of the method: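 Mutant libraries were PCR-built and transcribed for each subunit of a heterodimeric triplet polymerase ribozyme and selected for one round in triplicate at −7 °C, frozen, before gel excision of extended constructs and streptavidin-bead capture. Input and output libraries were Illumina-sequenced, keeping genotypes with ≥10 input reads and ≥1 read per output. Fitness is a logarithmic ratio of genotype to wild-type enrichment, in base 2, using inverse-variance-weighted replicate averages.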

Variant | polymerase ribozyme fitness (log ratio)
G36U G44A G63A | -3.52
G36A G51U G120A | -3.42
A37C G63C G77C C88U A105U | -5.64
G36A C56A G61A | -2.16
A37U G51C C88A | -5.1
A37G C104U G113A U130G | -1.23
G35A G60C | -5.49
A37C G39A C62U | -3.21
A37U G63C C104U U116C | -1.47
G35A U55A U78G C89U A91C C124A U126G G128U | -6.76
G36U G42U | -3.46
A37C C72U G120U A121C | 0.205
G36U G44A C72A C94G C123G | -4.22
G35U G58A C115U | -7.02
A37C C49A A66C C104U U125G | -1.63
G36A G48U C56U U112A G117U G120U G127C U133A | -6.88
G36A A43U C62U G113A | -3.5
C34U G52U U87G U112A G135C | -5.16
G36A C102A C104A G120U | -4.83
G36U G71U G117A | -4.25
A37U C72G U78C A119U | -1.26

Variant | polymerase ribozyme fitness (log ratio)
A37U A46U U131G | -2.61
A37U A83U U106A | 0.192
A37C G48C U54C G63A A74U G113A | -5.41
G35A U131A | -4.99
G36A G69A C73A G122A | -4.15
C34U C64U C88U | -4.34
C34U C62A | -4.23
G35A C99G U133G | -5.8
G36C C40G C72U C73A | -5.31
G36C G61C | -2.42
G36A A66U C88A C104G G113A C123G C124A | -5.59
G35A C88G | -4.5
A37G U92A | -2.8
G35A U78C | -3.74
G36A C64G C104G G110A G127U | -6.24
A37G C114U U129C | -3.17
A37U C114A | -0.828
G36U C124G | 0.74
G36U C124U | 0.315
A37G C98U | -1.79
C34G C115G | -7.42

Variant | polymerase ribozyme fitness (log ratio)
A37U C97G U112C | -4.07
G36C U54G G61U | -5.87
C34U U59G A121C C124G | -3.59
G35C C53G C56U U130A | -6.86
G36U U112A | 0.888
G35U G39U C72U A75U A103U | -8.04
G35U G69A U81C G113U | -6.53
A37C C56A U78C U130C | -0.27
C34U U54A | -4.44
A37U G57C C85U U125A | -1.95
C34G C79A A91C C97U C99U A100C C101U G113C U130A | -6.71
A37G C56U | -0.0501
G36A A43C C115A | -3.76
G36A C62A C89U A95C C114U | -6.66
A37G C70U C79A | -3.05
A37C G42U G48C A50U C70U G120U C124U | -3.73
A37U C97U | -2.15
A37C G60U C101G | -1.57
G36C C64U C85U | -1.78
A37C G42U C88A A111G | -4.05
G36U G39A C53A C94G C124G G127C | -2.11

Variant | polymerase ribozyme fitness (log ratio)
A37U G48U U55A | -1.56
G36U A90G C97G U106C | -1.51
G35A A103G | -6.59
A37C A46G G61U C64U | -5.42
A37C U54A G93C | -1.23
G35C C124A | -2.66
C34U C124U | -2.06
C34U C124A | -2.31
G36U U54G G69A | -5.06
A37C G44A A50U G120U | -3.3
A37C C85A G113C | -3.33
G36U U59A A90G C97G U106C | -1.98
G36U C40G U78G C97A U112G | -1.61
A37U C72A | -0.493
C34U G120A A121C | -4.71
A37G C64U C73G U109A | -6.41
A37U G63C A68U U78A U106A | -5.67
G36U U38C C72A C115G A118U C124G U131C | -5.85
C34U G52A C62G A119G C123U G135C | -5.87
G36U G71C | -1.92
